Experimental data: the supplement of paper PMC11865577

Tests used:
Test in all cases: pull-down binding Z-score (relative to library population); higher = stronger binding
[1] = tested on: TO-N3 (biotin conjugate); conditions: RNA library: Library-2
Method in brief: (§1)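 Streptavidin beads bearing 100 pmol of a biotin-conjugated small molecule were incubated for 60 min at 25 °C with 1 μg of heat-folded, Cy5- or Cy3-end-labelled RNA library in phosphate/NaCl/KCl buffer. Hot SDS eluted the RNA that stayed bound after three washes, and this RNA was hybridised for 20 h at 55.5 °C to a DNA barcode microarray. Binding was expressed as a Z-score against the library mean and standard deviation, after subtraction of a beads-only signal and trimmed averaging of barcoded replicate probes.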

[2] = tested on: G-clamp-N3 (biotin conjugate); conditions: RNA library: Library-1 (pre-miRNA loops + repeats)
Method in brief: as §1

[3] = tested on: TO-3-N3-2 (biotin conjugate); conditions: RNA library: Library-2
Method in brief: as §1

[4] = tested on: TO-3-N3 (biotin conjugate); conditions: RNA library: Library-2
Method in brief: as §1

[5] = tested on: TO-N3-2 (biotin conjugate); conditions: RNA library: Library-2
Method in brief: as §1

Sequence	pull-down binding Z-score [1]	pull-down binding Z-score [2]	pull-down binding Z-score [3]	pull-down binding Z-score [4]	pull-down binding Z-score [5]
UGGUGGUGAAUUCAUGAGUCGCCA [hsa-mir-3115]	-0.671	0.372	-0.498	-0.509	-0.62
UGGUUACGUGUUUGAUGGUUAAUCA [hsa-mir-376a-2]	-0.0926	1.55	-0.0388	-0.155	-0.0517
UGGUUAGCUUUUUUUUUUUUUUGAGAUGGAGUCUGGCUC [hsa-mir-8086]	-0.772	-0.608	0.519	-0.554	-0.598
UGGUUGAAUAUGUGAAUGGCAUCG [hsa-mir-449a]	0.153	0.694	0.0695	-0.0496	0.601
UGGUUUCACUA [hsa-mir-3713]	0.378	-1.64	-0.427	0.624	-0.526
UGGUUUGACACAGAGCUAAAUCA [hsa-mir-5007]	0.596	-0.866	0.0372	0.00148	-0.172
UGUAAAAUGUAAUAACAUUUCUUAUGUUUAAAACACUUUACA [hsa-mir-4801]	-0.783	-0.257	-0.401	-0.755	-1.14
UGUAAAUAACUACAAUUCUCUUAACUCCGUAGCAGUUGC [hsa-mir-7844]	-0.11	-1.5	-0.0721	-0.267	0.177
UGUAAGUUUGCGAUGAGACACUACA [hsa-mir-144]	0.405	-0.844	0.297	0.0531	0.341
UGUACAGGUGAGCGGAUGUUCUGCACA [hsa-mir-3120]	1.67	0.0407	0.681	1.53	1.57
UGUACGCUUUAUUUGUGACGUAGG [hsa-mir-1197]	-0.195	-0.171	-0.0204	-0.438	0.0488
UGUAUAGUAUUAUUCAAUACC [hsa-mir-1912]	-0.445	0.737	-0.0289	-0.222	-0.694
UGUAUAUAGCAUAUGUGUAUACAUACACACACACACACACACACACACA [hsa-mir-8485]	0.167	-1.14	-0.16	0.396	-0.143
UGUAUGUGUAAAUACAUAUCCACACA [hsa-mir-4789]	-0.285	-1.45	-0.00888	0.0268	-0.589
UGUAUUUUUCAGCAAGGCAAGGGCUUUGAUGUCUUGUA [hsa-mir-8065]	-0.402	-0.314	-0.132	-0.583	-0.0538
UGUCAUUACUUUCAAUGGCA [hsa-mir-548h-2]	-0.978	0.222	-0.4	-0.726	-1.22
UGUCAUUACUUUUAACUGUA [hsa-mir-548h-5]	1.07	-0.935	0.219	1.2	-0.469
UGUCAUUACUUUUAAUGGUA [hsa-mir-548h-1]	-0.56	-1.35	-0.357	-0.328	-1.24
